Laboratory results taken from paper PMC11429718.

Tests used:
[1] = target: 329 SOSIP.v8.2 Env trimer (HIV-1 clade C (isolate 329.14.B1)); test: negative-stain electron microscopy
[2] = target: 329 SOSIP.v8.2 Env trimer (HIV-1 clade C (isolate 329.14.B1)); test: native gel or EMSA

329 SOSIP.v8.2 Env trimer (complex)
stoichiometry N [1]: 3 | stoichiometry N [2]: 3
